The record followed here is publication PMC10853802, “ESRP1 controls biogenesis and function of a large abundant multiexon circRNA”.

What all share (conditions): protein: recombinant; tags: His-SUMO removed by Ulp1
For one series, the target named is T1, ESRP1 qRRM2 Y398A (human, UniProt Q6NXG1 312-430, Y398A).
T1 sequence: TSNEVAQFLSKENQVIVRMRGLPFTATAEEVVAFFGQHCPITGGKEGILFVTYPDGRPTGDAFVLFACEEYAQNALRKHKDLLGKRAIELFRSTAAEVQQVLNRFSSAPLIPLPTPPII
The experiment in a line: ITC; ITC: 100 mM NaCl, 10 mM Tris-HCl pH 8.0, 25 C; 300 uM protein injected into 20 uM RNA.

The target in another series is T2, ESRP1 qRRM2 R397A (human, UniProt Q6NXG1 312-430, R397A).
T2 sequence: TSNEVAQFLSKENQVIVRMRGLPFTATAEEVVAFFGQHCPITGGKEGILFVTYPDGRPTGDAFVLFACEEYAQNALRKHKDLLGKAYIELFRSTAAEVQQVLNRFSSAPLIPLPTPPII
Described as above.

A further series has as its target T3, ESRP1 qRRM2 F335A (human, UniProt Q6NXG1 312-430, F335A).
T3 sequence: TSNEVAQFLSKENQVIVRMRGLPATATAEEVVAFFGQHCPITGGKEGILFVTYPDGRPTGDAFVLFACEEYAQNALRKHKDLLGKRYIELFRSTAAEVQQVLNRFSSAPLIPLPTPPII
The description is as above.

The target of the next series is T4, ESRP1 qRRM2 WT (human, UniProt Q6NXG1 312-430).
T4 sequence: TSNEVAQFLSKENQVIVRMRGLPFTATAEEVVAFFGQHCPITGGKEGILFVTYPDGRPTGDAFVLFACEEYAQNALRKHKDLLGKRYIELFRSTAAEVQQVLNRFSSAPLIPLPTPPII
Briefly: X-ray crystallography (1.65 A); ITC: 100 mM NaCl, 10 mM Tris-HCl pH 8.0, 25 C; 300 uM protein injected into 20 uM RNA.

B1: 6-mer RNA (ssRNA)
RNA: UGGUGG
As to B1, the binding result with ESRP1 qRRM2 Y398A, in the series with ESRP1 qRRM2 R397A and with ESRP1 qRRM2 F335A was “no binding” throughout.

B2: 12-mer RNA (ssRNA)
RNA: UGGUGGUGGUGG
For the molecule B2, in the series with ESRP1 qRRM2 WT, the binding result is reported as “binds”.
